Measurements as given in US20080274950A1 (BABRAHAM INSTITUTE, published 2008).

T1: full length chicken N-cadherin with the N-terminus extended by two glycine residues (GG) expressed on K562 … (chicken, UniProt P10288 165-912)
T1 construct: whole, on cells; also called cells expressing the GG N-terminal extension mutant; K562 GG
T1 sequence: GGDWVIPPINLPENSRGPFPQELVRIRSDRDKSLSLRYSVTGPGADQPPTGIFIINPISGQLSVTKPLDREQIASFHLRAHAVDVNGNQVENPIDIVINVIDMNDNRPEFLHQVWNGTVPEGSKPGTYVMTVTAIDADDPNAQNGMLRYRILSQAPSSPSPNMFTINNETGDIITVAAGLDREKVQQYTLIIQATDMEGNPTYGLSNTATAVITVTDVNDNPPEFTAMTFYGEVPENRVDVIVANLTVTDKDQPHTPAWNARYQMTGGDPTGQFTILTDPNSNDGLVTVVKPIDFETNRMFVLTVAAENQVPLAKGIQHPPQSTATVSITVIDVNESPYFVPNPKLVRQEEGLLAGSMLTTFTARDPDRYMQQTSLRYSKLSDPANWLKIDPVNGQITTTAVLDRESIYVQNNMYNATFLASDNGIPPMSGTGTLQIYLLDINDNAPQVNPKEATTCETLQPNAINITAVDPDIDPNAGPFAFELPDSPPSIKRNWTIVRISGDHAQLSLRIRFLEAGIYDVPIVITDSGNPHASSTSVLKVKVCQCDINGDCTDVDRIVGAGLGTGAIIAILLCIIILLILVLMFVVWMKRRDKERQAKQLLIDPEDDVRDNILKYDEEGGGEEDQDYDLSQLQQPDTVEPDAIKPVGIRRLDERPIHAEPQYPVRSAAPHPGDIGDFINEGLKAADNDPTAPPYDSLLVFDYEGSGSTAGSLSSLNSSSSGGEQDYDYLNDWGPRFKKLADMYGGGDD

T2: full length chicken N-cadherin with the mutation E89A expressed on K562 cells (chicken, UniProt P10288 165-912, E89A)
T2 construct: whole, on cells; also called cells expressing the E89A mutation; K562 E89A
T2 sequence (looked up): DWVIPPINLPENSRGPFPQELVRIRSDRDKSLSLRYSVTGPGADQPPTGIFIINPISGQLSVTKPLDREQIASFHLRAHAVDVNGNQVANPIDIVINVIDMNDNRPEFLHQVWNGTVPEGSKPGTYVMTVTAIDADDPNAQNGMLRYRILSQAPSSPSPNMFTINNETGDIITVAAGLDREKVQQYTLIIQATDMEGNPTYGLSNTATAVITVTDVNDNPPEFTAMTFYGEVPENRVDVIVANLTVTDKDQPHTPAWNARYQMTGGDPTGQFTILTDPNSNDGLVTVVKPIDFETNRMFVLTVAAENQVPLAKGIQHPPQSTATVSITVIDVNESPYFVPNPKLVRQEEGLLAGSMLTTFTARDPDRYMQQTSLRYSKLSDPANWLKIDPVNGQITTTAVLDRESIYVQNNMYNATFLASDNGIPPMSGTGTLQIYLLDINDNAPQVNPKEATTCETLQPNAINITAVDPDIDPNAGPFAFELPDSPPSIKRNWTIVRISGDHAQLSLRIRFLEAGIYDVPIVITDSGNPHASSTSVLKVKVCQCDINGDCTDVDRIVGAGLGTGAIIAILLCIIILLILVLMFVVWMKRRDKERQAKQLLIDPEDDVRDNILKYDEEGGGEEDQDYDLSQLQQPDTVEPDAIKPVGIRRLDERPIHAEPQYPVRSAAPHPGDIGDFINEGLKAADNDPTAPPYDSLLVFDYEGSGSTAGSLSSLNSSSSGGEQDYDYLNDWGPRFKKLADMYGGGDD

T3: human N-cadherin naturally expressed on DX3 melanoma cells (human, UniProt P19022 160-906)
T3 construct: also called DX3 Cells; N-cadherin+ve DX3 melanoma cells
T3 sequence: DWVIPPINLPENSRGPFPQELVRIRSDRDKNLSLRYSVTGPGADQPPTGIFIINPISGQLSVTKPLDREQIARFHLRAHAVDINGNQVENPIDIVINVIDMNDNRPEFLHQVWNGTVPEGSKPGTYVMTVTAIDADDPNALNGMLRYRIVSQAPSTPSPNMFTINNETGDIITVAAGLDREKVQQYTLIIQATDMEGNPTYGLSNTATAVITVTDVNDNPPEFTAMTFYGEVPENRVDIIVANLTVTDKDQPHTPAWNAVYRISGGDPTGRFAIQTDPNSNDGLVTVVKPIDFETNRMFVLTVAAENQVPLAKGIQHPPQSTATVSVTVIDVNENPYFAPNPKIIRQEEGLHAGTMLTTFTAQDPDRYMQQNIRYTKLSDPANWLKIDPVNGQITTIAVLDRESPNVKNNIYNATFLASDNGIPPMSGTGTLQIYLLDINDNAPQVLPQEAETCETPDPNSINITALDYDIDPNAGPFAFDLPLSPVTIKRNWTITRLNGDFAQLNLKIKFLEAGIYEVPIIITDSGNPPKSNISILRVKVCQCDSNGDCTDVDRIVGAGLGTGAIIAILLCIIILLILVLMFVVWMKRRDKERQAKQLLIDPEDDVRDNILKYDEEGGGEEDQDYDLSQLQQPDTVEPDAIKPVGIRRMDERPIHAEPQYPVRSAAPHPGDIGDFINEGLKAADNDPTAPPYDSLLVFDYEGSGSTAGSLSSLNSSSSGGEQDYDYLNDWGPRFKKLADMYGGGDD


Columns and labels:
[1] = target: T1, full length chicken N-cadherin with the …; experiment: adhesion of K562 transfectants to coated N-cadherin Fc
Procedure, shortened: (§1)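 K562 (or L) cells transfected with wild-type or mutant N-cadherin settled 45 min at 37 °C onto N-cadherin Fc coated at 1 µg/ml. After non-adherent cells were washed off, bound cells were quantified by acid phosphatase activity. Values are % cells adhering ± SEM, quadruplicate.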

[2] = target: T2, full length chicken N-cadherin with the …; experiment: as above
Procedure, shortened: as §1

[3] = target: T3, human N-cadherin naturally expressed on …; experiment: adhesion of DX3 cells to coated N-cadherin-Fc
Description: Monomeric or dimeric N-cadherin-Fc fusion protein in Cos cell supernatants was added as described for the ELISA assay. DX3 Cells, a human melanoma cell line which expresses N-cadherin, were dissociated with Cell Dissociation Solution (Sigma, code C5789), resuspended in HBSS with 2% FCS and assessed for adhesion to wild type or mutant N-cadherin-Fc as previously described (Corps et al., 2001). Microscopic examination established that the cells were present as a single cell suspension as they settled onto the plate. For assays conducted in reducing conditions, 10 mM DTT was present during the adhesion and washing steps. Determinations were conducted in triplicate and results are presented as mean +/−sem.

Row | binding result [3] | Binder | binding result [1] | binding result [2]
1 | – | chicken N-cadherin-Fc fusion protein with the mutation D134A, dimeric (Fc fusion, UniProt P10288 165-728, looked up, extracellular domain; also called D134A mutant; N-cadherin Fc mutant D134A; not shown: hinge region, CH2 and CH3 domains of human IgG1 heavy chain (vector pIgSig)) DWVIPPINLPENSRGPFPQELVRIRSDRDKSLSLRYSVTGPGADQPPTGIFIINPISGQLSVTKPLDREQIASFHLRAHAVDVNGNQVENPIDIVINVIDMNDNRPEFLHQVWNGTVPEGSKPGTYVMTVTAIAADDPNAQNGMLRYRILSQAPSSPSPNMFTINNETGDIITVAAGLDREKVQQYTLIIQATDMEGNPTYGLSNTATAVITVTDVNDNPPEFTAMTFYGEVPENRVDVIVANLTVTDKDQPHTPAWNARYQMTGGDPTGQFTILTDPNSNDGLVTVVKPIDFETNRMFVLTVAAENQVPLAKGIQHPPQSTATVSITVIDVNESPYFVPNPKLVRQEEGLLAGSMLTTFTARDPDRYMQQTSLRYSKLSDPANWLKIDPVNGQITTTAVLDRESIYVQNNMYNATFLASDNGIPPMSGTGTLQIYLLDINDNAPQVNPKEATTCETLQPNAINITAVDPDIDPNAGPFAFELPDSPPSIKRNWTIVRISGDHAQLSLRIRFLEAGIYDVPIVITDSGNPHASSTSVLKVKVCQCDINGDCTDVDRIVGAGLGT | no binding (tested: Fc fusion protein coated at 1 µg/ml) | no binding (tested: Fc fusion protein coated at 1 µg/ml)
2 | binds | wild type chicken N-cadherin-Fc fusion protein, dimeric (linked by disulphide bonds at the Ig hinge region) (Fc fusion, UniProt P10288 165-729, looked up, extracellular domain; also called dimeric N-cadherin-Fc; wild type N-cadherin; not shown: hinge region, CH2 and CH3 domains of human IgG1 heavy chain (vector pIgSig)) DWVIPPINLPENSRGPFPQELVRIRSDRDKSLSLRYSVTGPGADQPPTGIFIINPISGQLSVTKPLDREQIASFHLRAHAVDVNGNQVENPIDIVINVIDMNDNRPEFLHQVWNGTVPEGSKPGTYVMTVTAIDADDPNAQNGMLRYRILSQAPSSPSPNMFTINNETGDIITVAAGLDREKVQQYTLIIQATDMEGNPTYGLSNTATAVITVTDVNDNPPEFTAMTFYGEVPENRVDVIVANLTVTDKDQPHTPAWNARYQMTGGDPTGQFTILTDPNSNDGLVTVVKPIDFETNRMFVLTVAAENQVPLAKGIQHPPQSTATVSITVIDVNESPYFVPNPKLVRQEEGLLAGSMLTTFTARDPDRYMQQTSLRYSKLSDPANWLKIDPVNGQITTTAVLDRESIYVQNNMYNATFLASDNGIPPMSGTGTLQIYLLDINDNAPQVNPKEATTCETLQPNAINITAVDPDIDPNAGPFAFELPDSPPSIKRNWTIVRISGDHAQLSLRIRFLEAGIYDVPIVITDSGNPHASSTSVLKVKVCQCDINGDCTDVDRIVGAGLGTG | – | –
